One data set concerns the target Neurotensin (1-13) (UniProt P30990).
Data set [1] concerns T1, Mca-Tyr-Val-Ala-Asp-Ala-Pro-(Dnp)Lys-OH (Caspase 1 substrate, Bachem M-2195).
T1 sequence: YVADAPK

The test system of data set [2] is T2, Mca-Ala-Pro-(Dnp)Lys-OH (AnaSpec MIPH1).
T2 sequence: APK

Data set [3] has as its system T1, Mca-Tyr-Val-Ala-Asp-Ala-Pro-(Dnp)Lys-OH (Caspase 1 substrate, Bachem M-2195). Nature of the data set: fluorogenic substrate cleavage by purified ACE-2, microtitre plate.
In data set [4] the test system is T2, Mca-Ala-Pro-(Dnp)Lys-OH (AnaSpec MIPH1). The description is as above.

From patent US20040082496 come the findings set out here.

By kcat/Km is commonly meant the second-order rate constant that governs catalysis at low substrate concentration. The Km is the concentration of substrate that gives half-maximal velocity. As for “secreted ACE-2 purified from CHO K1 cell supernatant (expression vector pMD37)”, the “hydrolysis followed by mass spectroscopy” value was “ACE-2 hydrolyzes Neurotensin (1-13) to Neurotensin (1-12)” with Neurotensin (1-13); “ACE-2 hydrolysed this substance between the P1 proline and P1′ (DNP)Lys” in data set [1]; “When treated with ACE-2, mass spectroscopy data shows that Angiotensin I (1-10) is converted to Angiotensin I (1-9)” in the data set with Angiotensin I(1-10); “ACE-2 can hydrolyze des-Arg bradykinin” in the data set on (Des-Arg^9) Bradykinin. Besides, the kcat/Km in data set [1] came to 42000 M⁻¹ s⁻¹; in data set [2] it was 230000 M⁻¹ s⁻¹. Also, the results for the Km in data set [3] and in data set [4] were 130 µM and 340 µM, respectively.
